We go through 3 molecules from patent US12416034B2, “Recombinant production of steviol glycosides” (EVOLVA SA, priority 2011, dated 2025).

One data set is described as follows: RebD solubility in water. It counts as physicochemical. The settings on record: 30° C. The method, then: The solubility of RebD was assessed by making several different solutions of RebD in water were made and incubated at 30° C. for 72 hours. […] One with skill in the art will recognize that the solubility can be influenced by any number of conditions such as pH, temperature, or different matrices.

A short description of data set [1]: Screening by LC-MS of E. coli lysates, rubusoside as substrate. It is filed as biochemical. Here is the method: (§1) To analyze the approximately 1600 mutant clones of UGT91D2e, the E. coli transformants were grown overnight at 30° C. in 1 ml of NZCYM containing ampicillin (100 mg/1) and chloramphenicol (33 mg/1), in 96-well format. The next day, 150 μl of each culture was inoculated into 3 ml NZCYM containing ampicillin (100 mg/1), chloramphenicol (33 mg/1), arabinose 3 mM, IPTG 0.1 mM and ethanol 2% v/v, in 24-well format, and incubated at 20° C. and 200 rpm for ˜20 h. The following day, cells were spun down and pellets were resuspended in 100 μl of lysis buffer containing 10 mM Tris-HCl pH 8, 5 mM MgCl2, 1 mM CaCl2) and complete mini protease inhibitor EDTA-free (3 tablets/100 ml) (Hoffmann-La Roche, Basel, Switzerland) and frozen −80° C. for at least 15 minutes to promote cell lysis. […] In each case, the resulting compounds, stevioside or rebaudioside D (rebD), were measured by LC-MS. Results were analyzed in comparison with the stevioside or rebD produced by the lysates expressing the corresponding controls (91D2e, 91D2e-b, EUGT11 and the empty plasmid). […]
(§2) Half of the 1600 clones and the corresponding controls were assayed for their capacity to glycosylate rubusoside and rebaudiosideA. Stevioside and RebD were quantified by LC-MS. […]

Data set [2] in a line: Screening by LC-MS of E. coli lysates, rebaudioside A as substrate. It is filed as biochemical. The settings on record: RebA substrate. Here is the method:
as §1, §2

Data set [3] in a line: Denaturation temperature by differential scanning calorimetry (DSC). It counts as physicochemical. The settings on record: 6HIS-purified enzymes, 91D2e-b GST-purified. The method, then: To assess the thermal stability of EUGT11 and to compare it with the other UGTs in the steviol glycosylation pathway, denaturation temperatures of the proteins were determined using differential scanning calorimetry (DSC). Use of DSC thermograms to estimate denaturation temperatures, TD, is described, for example, by E. Freire in Methods in Molecular Biology 1995, Vol. 40 191-218. DSC was performed (using 6HIS-purified EUGT11, yielding an apparent TD of 39° C.; while when GST-purified 91D2e-b was used, the measured TD was 79° C. For reference, the measured TD when using 6HIS-purified UGT74G1, UGT76G1 and UGT85C2 was 86° C. in all cases. One of skill in the art will recognize that enzyme immobilization or addition of thermal protectants can be added to the reactions to improve stability of the protein. Non-limiting examples of thermal protectants include trehalose, glycerol, ammonium sulphate, betaine, trimethylamine oxide, and proteins.

Data set [4] can be described thus: Enzyme kinetics with RebA as substrate. It counts as biochemical. To be noted: Reb A. The method, then:
(§3) A series of experiments were performed to determine kinetic parameters of EUGT11 and 91D2e-b. For both enzymes, 100 μM RebA, 300 μM UDP-glucose, and 10 U/mL Alkaline Phosphatase (Fermentas/Thermo Fisher, Waltham, MA) were used in the reactions. For EUGT11, the reactions were performed at 37° C. using 100 mM Tris-HCl, pH 7, and 2% enzyme. For 91D2e-b, the reactions were performed at 30° C. using 20 mM Hepes-NaOH, pH 7.6, 20% (by volume) enzyme. The initial velocities (V0) were calculated in the linear range of a product versus time plot.
To first investigate the linearity intervals, initial time-courses were done for each enzyme. EUGT11 was assayed at 37° C. for 48 h at initial concentrations of 100 μM RebA and 300 μM UDP-glucose. UGT91D2e-b was assayed at 37° C. for 24 h at initial concentrations of 200 μM RebA and 600 μM UDP-glucose. Based on these range-finding studies, it was determined that the initial 10 minutes in the case of EUGT11, and the initial 20 minutes in UGT91D2e-b would be in the linear range with respect to product formation, and therefore initial velocities of each reaction were calculated in those intervals. In the case of EUGT11, RebA concentrations assayed were 30 μM, 50 μM, 100 μM, 200 μM, 300 μM and 500 μM. Concentration of UDP-glucose was always three times the concentration of RebA and incubation was performed at 37° C. By plotting the calculated V0 as a function of the substrate concentrations, Michaelis-Menten curves were generated. By plotting the reciprocal of V0 and the reciprocal of [S], a Lineweaver-Burk graphic was obtained, with y=339.85x+1.8644; R^2=0.9759.
(§4) Vmax and KM parameters were determined from the curve-fit Lineweaver-Burk data, calculated from the x- and y intercepts (x=0, y=1/Vmax) and (y=0, x=−1/KM). Additionally, the same parameters also were calculated by a non-linear least squares regression, using the SOLVER function in Excel. The results obtained with both methods for EUGT11 and RebA are presented in Table 12, along with all the kinetic parameters of this example. Kcat is calculated based on Vmax divided by the approximate amount of protein in the assay.
(§5) In the case of UGT91D2e-b, RebA concentrations assayed were 50 μM, 100 μM, 200 μM, 300 μM, 400 μM and 500 μM. Concentration of UDP-glucose was always three times the concentration of RebA and incubation was performed at 30° C., in the reaction conditions described above for UGT91D2e-b. Additionally, kinetic parameters of UGT91D2e-b towards UDP-glucose were determined. UGT91D2e-b was incubated with increasing amounts of UDP-glucose (30 μM, 50 μM, 100 μM, and 200 μM), maintaining an excess of RebA (1500 μM). incubation was performed at 30° C., in optimal conditions for UGT91D2e-b.

Data set [5] can be described thus: Enzyme kinetics with UDP-glucose as substrate. It is filed as biochemical. The method, then:
as §3, §4
In order to investigate the influence of UDP-glucose concentration in the glycosylation reaction, as well as the affinity of EUGT11 for UDP-glucose, similar kinetics analysis were performed. EUGT11 was incubated with increasing amounts of UDP-glucose (20 μM, 50 μM, 100 μM, and 200 μM), maintaining an excess of RebA (500 μM).
as §5

A short description of data set [6]: Codon optimized UGT cell lysate assay, steviol as substrate. The settings on record: 0.25 mM steviol, 24 hours, 30° C. It is filed as biochemical. Here is the method:
The wild-type, DNA 2.0, and GeneArt sequences were assayed for in vitro activity to compare reactivity on substrates in the steviol glycosides pathway. UGTs were inserted in high copy (2p) vectors and expressed from a strong constitutive promoter (GPD1) (vectors P423-GPD, P424-GPD, P425-GPD, and P426-GPD). The plasmids were transformed individually into the universal Watchmaker strain, EFSC301 (described in Example 3 of WO2011/153378) and assays were carried out using cell lysates prepared from equal amount of cells (8 OD units). For the enzymatic reactions, 6 μL of each cell lysate were incubated in a 30 μL reaction with 0.25 mM steviol (final concentration) to test UGT74G1 and UGT85C2 clones, and with 0.25 mM 13-SMG (13SMG) (final concentration) to test 76G1 and 91D2e UGTs. Assays were carried out for 24 hours at 30° C. Prior to LC-MS analysis, one volume of 100% DMSO was added to each reaction, samples were centrifuged at 16000 g, and the supernatants analysed.

As for `C=C1C[C@@]23CC[C@H]4[C@@](C)(CCC[C@@]4(C)C(=O)O[C@@H]4O[C@H](CO)[C@@H](O)[C@H](O)[C@H]4O[C@@H]4O[C@H](CO)[C@@H](O)[C@H](O)[C@H]4O)[C@@H]2CC[C@]1(O[C@@H]1O[C@H](CO)[C@@H](O)[C@H](O[C@@H]2O[C@H](CO)[C@@H](O)[C@H](O)[C@H]2O)[C@H]1O[C@@H]1O[C@H](CO)[C@@H](O)[C@H](O)[C@H]1O)C3` [RebD, Rebaudioside D], the “concentration soluble in water initially” value in the data set “RebD solubility in water” (72 hours) was at most 1000 µM. Besides, the “concentration stable for longer periods of time” value in the data set “RebD solubility in water” (water) is at most 500 µM.

B1: 91D2e-b: UGT91D2e double mutant C631A/T857C, amino acid modifications L211M and V286A (protein, listed as Stevia rebaudiana)
chain: MATSDSIVDDRKQLHVATFPWLAFGHILPYLQLSKLIAEKGHKVSFLSTTRNIQRLSSHISPLINVVQLTLPRVQELPEDAEATTDVHPEDIPYLKKASDGLQPEVTRFLEQHSPDWIIYDYTHYWLPSIAASLGISRAHFSVTTPWAIAYMGPSADAMINGSDGRTTVEDLTTPPKWFPFPTKVCWRKHDLARLVPYKAPGISDGYRMGMVLKGSDCLLSKCYHEFGTQWLPLLETLHQVPVVPVGLLPPEIPGDEKDETWVSIKKWLDGKQKGSVVYVALGSEALVSQTEVVELALGLELSGLPFVWAYRKPKGPAKSDSVELPDGFVERTRDRGLVWTSWAPQLRILSHESVCGFLTHCGSGSIVEGLMFGHPLIMLPIFGDQPLNARLLEDKQVGIEIPRNEEDGCLTKESVARSLRSVVVEKEGEIYKANARELSKIYNDTKVEKEYVSQFVDYLEKNARAVAIDHES
Broadly, the Km is the substrate concentration at which the rate is half of its maximum. The term Vmax denotes the rate approached at saturating substrate. Consider B1, for which the “stevioside formed by lysates” value in data set [1] is over 10 µM. In data set [2], the “RebD formed by lysates” value is over 1.5 µM. Moreover, the “denaturation temperature TD” value in data set [3] stood at 79 °C. Besides, the Kcat in data set [4] (Lineweaver-Burk plot) was 0.00683 s⁻¹; in data set [4] (Nonlinear Least Square Fit), 0.00533 s⁻¹; in data set [5] (Lineweaver-Burk plot) it was 0.00317 s⁻¹; in data set [5] (Nonlinear Least Square Fit), 0.0033 s⁻¹. Besides, the Km in data set [4] (Lineweaver-Burk plot) was 1580 µM; in data set [4] (Nonlinear Least Square Fit), 1150 µM; in data set [5] (Lineweaver-Burk plot), 41.9 µM; in data set [5] (Nonlinear Least Square Fit), 45.1 µM. Also, the Vmax in data set [4] (Lineweaver-Burk plot) was 0.44 µM/min; in data set [4] (Nonlinear Least Square Fit), 0.34 µM/min; in data set [5] (Lineweaver-Burk plot) it was 0.18 µM/min; in data set [5] (Nonlinear Least Square Fit), 0.19 µM/min.

B2: UGT74G1: S. rebaudiana UGT, SEQ ID NO:1 (protein, listed as Stevia rebaudiana)
chain: MAEQQKIKKSPHVLLIPFPLQGHINPFIQFGKRLISKGVKTTLVTTIHTLNSTLNHSNTTTTSIEIQAISDGCDEGGFMSAGESYLETFKQVGSKSLADLIKKLQSEGTTIDAIIYDSMTEWVLDVAIEFGIDGGSFFTQACVVNSLYYHVHKGLISLPLGETVSVPGFPVLQRWETPLILQNHEQIQSPWSQMLFGQFANIDQARWVFTNSFYKLEEEVIEWTRKIWNLKVIGPTLPSMYLDKRLDDDKDNGFNLYKANHHECMNWLDDKPKESVVYVAFGSLVKHGPEQVEEITRALIDSDVNFLWVIKHKEEGKLPENLSEVIKTGKGLIVAWCKQLDVLAHESVGCFVTHCGFNSTLEAISLGVPVVAMPQFSDQTTNAKLLDEILGVGVRVKADENGIVRRGNLASCIKMIMEEERGVIIRKNAVKWKDLAKVAVHEGGSSDNDIVEFVSELIKA
In the case of B2, the “denaturation temperature TD” value in data set [3] is 86 °C. In addition, the “activity of GeneArt lysate as a percentage of the wild-type enzyme” value in data set [6] is recorded as “equivalent activity”.
